Test: label from the status in PepcDB records
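Note: failed if final PepcDB status was selected cloned or expressed and not failed if soluble or beyond.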

| Sequence | protein production |
| --- | --- |
| MRDALLGALDAGAVCVNVDLAHAGQQAKLEPDTPYGDALGVGAGRNWAHVNSIAYDAKDDSIILSSRHQGIVKIGRDKQVKWILAPSKGWNKQLASKLLKPVDDHGKPLTCDENGKCKDTDFDFTYTQHTAWLSSKGTLTVFDNGDGRGLEQPALPTMKYSRFVEYKIDEKKGTVQQVWEYGKERGYDFYSPITSVVEYQKDRDTMFGFGGSINLFDVGKPTVGKLNEIDYKTKEVKVEIDVLSDKPNQTHYRALLVHPTQMFKLEHHHHHH | not failed |
| MRDEAGSRGIVMQNASANALVPREAARAAPMADIQKIAQHMARLNVAALPRNYELFHEAIIGLNAGLAQDIAALGSQPQQPMLDELGLKYRLAGHCGLAGETSRNEASRMLRDVAERLAEGLRHKNAFARACGTILKSVSGQNDQSLAAFLSEIDYLTASLSTVLAAEMEIGAKLQDDIKTLETLERGISAMQSAAIADRITGLPNRIALNRTIADLYERQEGAAGSALIMVDIDNFTDLNDKYGTQAGNKLLKKLAGLLQKSIKKNDFVARTEGDEFALLFSNVGMQDAIAIAERLRASVEDNLVFATSDKTDRGRLTISIGVALSTDAATPGQLQANARVALLAAQSNPRLPVQAFGR | failed |
| MRDILFIYLLTLGIKLYAYFLSGFTAILADAFHSVIDITMILILLLSERYAEKEADYQHPFGHEMARNVASLAVGVGFITFMFFELMKEGLLKVLHPASGYSNVEVALGAEVAVLALLVIAALISARRSGILNRTLLVESLNDSLSTLAAIVGVGLVWAGYPIFDGIATIAIAFIIFYNSFRLVRDNARLLIGMSPSEDFYRSVEDACLEIERVKGVHDMVGVYTGENSVHLDLHVTVDGAMTIEEADKLSVEIAEAIMAKHPEVKHISVHFCPHDGRRRKLY | failed |
| MRDRGDKPAEAGLGLTQTRQEDPAAMIDLYYAPTPNGWKISIMLEECGLPYKVVPMQLGRGDQHQPGFLKLSPNGRMPAIVDHAPIGGGAPLSVFESGAILIYLAEKSGQLMPTETRARFEVMQWLMWQMAGLGPMLGQNGHFLLYAPEKIPYAIDRYSREAKRLYGVLDQRLADRACIAGDYSIADIACFPWIMTHKAQGLTLDDYPNIKRWYAALRARPKLQAGLALGKEDKKPMDEQARKLLFGVDKPAHADAQAQSAQQQ | not failed |
| MRDRRAPSPCGWRSGRNDLRPARLDLAISAAMRTNSAPQPEGDADQPPSPSTPPAGPPPRRRFGFARRLLAPVLSPVAHYARRYLQASVEHELRQTQGQLHALSAELNAAQARIDHNRELMHLMLQQQQASAVAMQSVLAQLARIEGHSARAEDHGIRIEGLSRKLDGDIAGLPGVFGPRFDELEIKQRPLIAYDDESMAIRMRDGYVLAPRNLPTFVTMLANATSRGLEPGTGDVLRRLVQPGMVVADVGANIGLLTLVMAWATGPGGRVIAFEPEAIPRSNLEKMKHLNGLSWVEVRDQAVGERAGRLTFHVSDIIGHSSLYALPDAEEARTVEVEVVRLDDVAPAKRLDVVKIDVEGAELDVLAGMKGVIAKNPDLAIIAEFGPEHLARVGQTPVQWFKAFGDAGFKAYMINETSGDCEPTSAKAATTVVSANIAFVRAGGDAEMRLLGR | failed |
| MREEELNTEKVVAAIANPVENEVRKVWEDVVEKIEQRVAVIEQASHKLLQNKVSEEILSKAKVEAHKLAGSLGMFGSDEGSQIAQEIESLLDNGKKLKASGGKHLGQVVELEHHHHHH | failed |
| MREGRLGYNSYNKRYGLLSSDLWIDTGFHCGEYLEVLLDDEWVQTRMEMNPAREWYLVGTPYCGDLEYIRARIPE | failed |
| MREPVDLRRQRILAAVQARGTARVRDLADELQVSVVTVRRDVEELTREGRLSRGHGVVRSTLPARESAPEAVPAAGDRVAVVVPVRHSYLTETLHGARTVLERAGVRMALHLAPQASGAERPLVERALADGADGLLIAPRWRGRADEEADHEWLAGTGVPTVLMERRPWRGSALHALDSVCSDHWYGAHLAVEHLVGLGHRRIVVATRHDSPTARSLRAAFTEIAGAHPLVERWAWTLVAPEAGADGPYSADETAEPPALMRKVGATAMVLHGDVDALMVVQRLAEEGVRVPEDCSVVAYDDVVAGLAAPPLTAVSPPKAEVGHTAAELLLQRLTEAPGGRRPGRRVELLPRLMVRGSTDRSVEPLDE | failed |
| MRFGSRIEDGTGAPGAGRLARFAAVGGSGVVVNLAVLHVLAQGLGVPEVAASAVAIEASVLSNFLLHDAITFRDRRGGRGRLARLGRYHAVSLVGVAIQLATFAALALLARHALGRPSLGPLRLPAQAAGIALAFAWSWAGSARWAWAGAGAAVRGPEAGARGRALLPAVLFGALVALHVLPIWLVRYFPTQDGPLHVENVLALLHHGASPLLRGYYEANWGAQPNWLTQALLAPLLSIVSPLTAEKLVLSGYTVLLPISFRAVLPRGARGWWAALAVFPFVHAYPFHMGFWNFCYGVALAFLAAGFWLRTRGRLGPGRFAALAVLSLLLYLAHSVAFAGALLFAGAVLGLRAARSLARARRHPARRRRVAAAYARRAAAGLAAAAPGLLLLGAWLLAHRDRVAARIPLPELAAKLAAGYSLVSIDRRELPLAMAVMLVLAVAVVHAALVRAGRGVRLLAHDGWLVAAAAFVLLYFAVPDVVAAGAHVSDRMALLALLCVAAWLGAASAGPGAPARRAAVALAAIAVVALGVRLDKQRQLSAYLEEYASASAAVEEGRVMLPLALSPYGPQDAHGRRMGYRIKPFLHATGWIVAARGGVDLKNSQANTDHCPVRFPAGRNPFHVIAGSLGRMEGVPPCVDLRGARRLGRLDYVLVWGATRELLETPCGAALAADLAARYEPVWLSAPRGMLEIWRPRAAVAVAR | failed |
| MRFKQNADHIVLTHVFNGGSAESAALCPQDKIIALDGYACTDFAAQWARYHVRAKINIHFFRAGILRQTVLTVQATALEHHHHHH | failed |
| MRFLAYFGHLNIDVLISVDSIPREGSVNVKDLRPRFGGTAGNFAIVAQKFRIPFDLYSAVGMKTHREYLAMIESMGINTGHVEKFEDESGPICYIATDGKKQVSFMHQGAMAAWAPQLADEYEYVHFSTGPNYLDMAKSIRSKIIFDPSQEIHKYSKDELKKFHEISYMSIFNDHEYRVFREMTGLSSPKVTTIVTNGERGSSLFMDGKKYDFPAIPSSGDTVGAGDSFRAGLYLALYNRRSIEKGMIYGTIIAHHVIDDGIENFSLNMEDLERETENYRRMFTKRS | not failed |
| MRFLSLVGNSFGCSASGERLVSAARDGDLQEAKALLDYNPRLARYSTFGVRNSPLHYSAAQGHHEIVSLLVESGVDINLRNYRGQTALMQACQHGHWEVVLILILFGANIHRSDYLNGGTALHLAALNGHPRCIRILLSEYIPSVPNCWSLLKNKKTSVAGFDSSVLHEVINRAADGGITPLHVAALNGHIETVQLLLDLGASVTQVTVEDGTTIDLIGAGSTALHYASCGGNTQCCQLLISKGACLAAVNSNGWTPMMVARSWHRNWLEEILNPTTEQPQLHLPNVPSPFLCLPLMSIVNIAQECGWRENDCLTPCRDPCAVCLERKCTVAADGCAHEFCTNCALYLSTTSITSSKTSNVTPGSVPCPLCRNGIVSFTKLPHTTATTRTSTSSRTSISLSFCTCSSDVLDTALLTNPHYSCKPVVSRTGSRTPQSARSSAFRSLSCRRFPPSLCLGGSDVDEPRSRLIGGSYSRSGVGFRRSTSQVEGKRSWFSALNHCVTTGGSAC | failed |
| MRFSFLPIVILMMPILEIAGFIIVGKAIGLWLTLALILFTSFLGLLILRLGGVGMVRNLQAAGRTGAQPADELVNGAMRVVAGILLIIPGFITDILGLLLLSPAIRRFFWKAFGPRVVVSGSFRQSGPQQGDYSGFRNGPGPAGNSKVVDLDEEEFHREGSKDSPWSNRPDDRDLPKP | failed |
| MRGCNKETGEFLGPSRSQQRRTALEVLVLSEKLAALTPAQLAKLPIPERLLPHITETKRITSHIARKRQLAFLAKQMRREDDTTLEAIREKLNASGIQAQREVATLHRTEQWRKRLLEEGDSALTELLNQYPQADCGKLRQLLRNSKTEQARNKAPQAFRELYQVLHGLIITQ | not failed |
| MRGDKFTLRDSLCLKVDGGRGVCLKGDGGRGVCLKGDGGRGVCLKGDSCDFNHSYTLPRREEVEKHQIELFKEEILSYMRKWISPHEFLQKVLDFNLKSLLVDLAATFNVRYPERQRLLV | failed |
| MRGKHIFIITALISILMLAACGQKNSSATVATATDSTITKSDFEKQLKDRYGKDMLYEMIAQDVITKKYKVSDDDVDKEVQKAKSQYGDQFKNVLKNNGLKDEADFKNQIKFKLSMNKAIKQSVTEKDVKDHYKPEIKASHILVSDENEAKEIKKKLDTGASFEELAKQESQDLLSKEKGGDLGYFHSGAMTPEFETAAYKLKIGQISDPVQSPNGYHIIKLTGKKDLKPYDEVKNSIRKNLEEERTADPIFGKKLLQSELKKANIKINDSELEDTFTIVSPQGN | failed |
| MRGKKRIGLLFLLIAVVVGGGGLLLAQKVLHKTSDTAFCLSCHSMSKPFEEYQGTVHFSNQKGIRAECADCHIPKSGMDYLFAKLKASKDIYHEFVSGKIDSDDKFEAHRQEMAETVWKELKATDSATCRSCHSFDAMDIASQSESAQKMHNKAQKDSETCIDCHKGIAHFPPEIKMDDNAAHELESQAATSVTNGAHIYPFKTSHIGELATVNPGTDLTVVDASGKQPIVLLQGYQMQGSENTLYLAAGQRLALATLSEEGIKALTVNGEWQADEYGNQWRQASLQGALTDPALADRKPLWQYAEKLDDTYCAGCHAPIAADHYTVNAWPSIAKGMGARTSMSENELDILTRYFQYNAKDITEKQ | failed |
| MRGLAVLVLLVFAVQVAAAEDFRPVVFVHGLAGSAGQFESQGMRFAANGYPAEYVKTFEYDTISWALVVETDMLFSGLGSEFGLNISQIIDPETLDKILSKSRERLIDETFSRLDRVIDEALAESGADKVDLVGHSMGTFFLVRYVNSSPERAAKVAHLILLDGVWGVDAPEGIPTLAVFGNPKALPALGLPEEKVVYNATNVYFNNMTHVQLCTSPETFAVMFEFINGYKPATTDIVPQDGDYVKVKGKFLAFATNGDVSGWLSIYPIDENGKRLTRLPVKFMRVKGDFEVRLRKGQLYEFQFRKDFSPIIYHYYRAPFVRDDLWARFLVSKPPLDVELLILPERLSPAAKETSGLLLIRYKEMIGEYDEEIGGVDEVYVNGVNVCTERICPIERAVNGLWVFDRGADGKSDLDREVVRYSIMPFMSAADLVVPAEGTISIAVKSRTGGEESFTIPAWSADRHSIIVQFSDYI | failed |
| MRGLKTFSILGLIVALLLVAACGNTDNSSKKESSTKDTISVKDENGTVKVPKDAKRIVVLEYSFADALAALDVKPVGIADDGKKKRIIKPVREKIGDYTSVGTRKQPNLEEISKLKPDLIIADSSRHKGINKELNKIAPTLSLKSFDGDYKQNINSFKTIAKALNKEKEGEKRLAEHDKLINKYKDEIKFDRNQKVLPAVVAKAGLLAHPNYSYVGQFLNELGFKNALSDDVTKGLSKYLKGPYLQLDTEHLADLNPERMIIMTDHAKKDSAEFKKLQEDATWKKLNAVKNNRVDIVDRDVWARSRGLISSEEMAKELVELSKKEQK | failed |
| MRGLSRRVQAMKPSATVAVNAKALELRRQGVDLVALTAGEPDFDTPEHVKEAARRALAQGKTKYAPPAGIPELREALAEKFRRENGLSVTPEETIVTVGGKQALFNLFQAILDPGDEVIVLSPYWVSYPEMVRFAGGVVVEVETLPEEGFVPDPERVRRAITPRTKALVVNSPNNPTGAVYPKEVLEALARLAVEHDFYLVSDEIYEHLLYEGEHFSPGRVAPEHTLTVNGAAKAFAMTGWRIGYACGPKEVIKAMASVSSQSTTSPDTIAQWATLEALTNQEASRAFVEMAREAYRRRRDLLLEGLTALGLKAVRPSGAFYVLMDTSPIAPDEVRAAERLLEAGVAVVPGTDFAAFGHVRLSYATSEENLRKALERFARVLGRA | not failed |
| MRGPAEQPPVTAISADATDADAAWRIMEQTRPDVVIMNAGAEPPMERIDRIGWEAFTTNWNVDVKAALHWVQAALTVPMAPGGLVVLISSGAAVQGSPLSGGYAGAKRAQWFIAKYADGLSAELGLGLRFRVLVPRQMFVGTGVGDTGIGAYAAKAGRTFAEQAATWPNMTPRAFGDTVAELIGKSGLAEAMVYAVRGDTGVTVIE | failed |
